Laboratory results taken from PMC6978801, “Structural Basis of Teneurin-Latrophilin Interaction in Repulsive Guidance of Migrating Neurons” (Cell, 2020).

What was measured:
[1] = biological target: chicken Ten2 ectodomain, soluble (UniProt Q9DER5); experiment: cell-based binding assay (immunofluorescence, HEK293 cells); settings: n = 12, parent: est. 58, read off a plot
[2] = biological target: mouse Teneurin 2 protein, soluble (UniProt Q9WTS5); experiment: as above; settings: n = 12; surface murine Lphn1TL, soluble His-tagged murine Ten2 (ecto); parent: est. 27; read off a plot
[3] = biological target: murine Latrophilin 1 ectodomain (mLphn1 ecto) (mouse) (UniProt Q80TR1); experiment: SPR; Biacore T200, equilibrium binding at 25 °C, PBS + 0.005% polysorbate 20 pH 7.5; Latrophilin constructs biotinylated at a C-terminal Avi-tag and coupled to a streptavidin-coated CM5 chip (670-730 RU ecto, 220 RU Lec-Olf); Ten2 ectodomains injected; apparent KD from a 1:1 Langmuir fit, analyte concentration calculated as monomer; Teneurin is dimeric, values indicative only
[4] = biological target: murine Latrophilin 2 ectodomain (mLphn2 ecto) (mouse) (UniProt Q8JZZ7); experiment: as above
[5] = biological target: murine Latrophilin 3 ectodomain (mLphn3 ecto) (mouse) (UniProt Q80TS3); experiment: as above
FLRT2 on K-562 cells = FLRT2 on K-562 cells (UniProt Q8BLU0); experiment: K-562 cell aggregation assay; settings: n = 3; parent: est. 47; read off a plot
Ten2 on K-562 cells = Ten2 on K-562 cells (UniProt Q9DER5); experiment: K-562 cell aggregation assay; settings: n = 3; parent: est. 56; read off a plot
Lphn1 on K-562 cells = Lphn1 on K-562 cells (UniProt Q80TR1); experiment: K-562 cell aggregation assay; settings: n = 3; parent: est. 56; read off a plot
murine Lphn1 (ecto) = experiment: cell-based binding assay (immunofluorescence, HEK293 cells); settings: n = 12; surface chicken Ten2LT, soluble His-tagged murine Lphn1 (ecto); read off a plot
murine Lphn2 (ecto) = murine Lphn2 (ecto) (UniProt Q8JZZ7); experiment: as above; settings: n = 12; surface chicken Ten2LT, soluble His-tagged murine Lphn2 (ecto); read off a plot
[6] = biological target: T1, murine Teneurin 2 ectodomain (mTen2 ecto) (mouse, UniProt Q9WTS5 401-2764); experiment: SPR; Biacore T200, equilibrium binding at 25 °C, PBS + 0.005% polysorbate 20 pH 7.5; Latrophilin constructs biotinylated at a C-terminal Avi-tag and coupled to a streptavidin-coated CM5 chip (670-730 RU ecto, 220 RU Lec-Olf); Ten2 ectodomains injected; apparent KD from a 1:1 Langmuir fit, analyte concentration calculated as monomer; Teneurin is dimeric, values indicative only; settings: both partners purified
T1 construct: Teneurin-2 (Ten2), mouse, soluble ectodomain ('ecto'); analyte concentration was calculated as monomer; also called mouse Ten2 (ecto); mouse Teneurin 2 protein; source: HEK293 cells, purified (HisTrap, Superdex200 size exclusion)

[7] = biological target: T2, chicken Teneurin 2 ectodomain (gTen2 ecto) (chicken, UniProt Q9DER5 429-2802); experiment: as above; settings: both partners purified
T2 construct: Teneurin-2 (Ten2), chicken (Gallus gallus), soluble ectodomain ('ecto'); analyte concentration was calculated as monomer; also called chicken Ten2 (ecto); source: HEK293 cells, purified (HisTrap, Superdex200 size exclusion)

Chain of murine Latrophilin 2 ectodomain (mLphn2 ecto) (mouse) (Q8JZZ7 26-1487): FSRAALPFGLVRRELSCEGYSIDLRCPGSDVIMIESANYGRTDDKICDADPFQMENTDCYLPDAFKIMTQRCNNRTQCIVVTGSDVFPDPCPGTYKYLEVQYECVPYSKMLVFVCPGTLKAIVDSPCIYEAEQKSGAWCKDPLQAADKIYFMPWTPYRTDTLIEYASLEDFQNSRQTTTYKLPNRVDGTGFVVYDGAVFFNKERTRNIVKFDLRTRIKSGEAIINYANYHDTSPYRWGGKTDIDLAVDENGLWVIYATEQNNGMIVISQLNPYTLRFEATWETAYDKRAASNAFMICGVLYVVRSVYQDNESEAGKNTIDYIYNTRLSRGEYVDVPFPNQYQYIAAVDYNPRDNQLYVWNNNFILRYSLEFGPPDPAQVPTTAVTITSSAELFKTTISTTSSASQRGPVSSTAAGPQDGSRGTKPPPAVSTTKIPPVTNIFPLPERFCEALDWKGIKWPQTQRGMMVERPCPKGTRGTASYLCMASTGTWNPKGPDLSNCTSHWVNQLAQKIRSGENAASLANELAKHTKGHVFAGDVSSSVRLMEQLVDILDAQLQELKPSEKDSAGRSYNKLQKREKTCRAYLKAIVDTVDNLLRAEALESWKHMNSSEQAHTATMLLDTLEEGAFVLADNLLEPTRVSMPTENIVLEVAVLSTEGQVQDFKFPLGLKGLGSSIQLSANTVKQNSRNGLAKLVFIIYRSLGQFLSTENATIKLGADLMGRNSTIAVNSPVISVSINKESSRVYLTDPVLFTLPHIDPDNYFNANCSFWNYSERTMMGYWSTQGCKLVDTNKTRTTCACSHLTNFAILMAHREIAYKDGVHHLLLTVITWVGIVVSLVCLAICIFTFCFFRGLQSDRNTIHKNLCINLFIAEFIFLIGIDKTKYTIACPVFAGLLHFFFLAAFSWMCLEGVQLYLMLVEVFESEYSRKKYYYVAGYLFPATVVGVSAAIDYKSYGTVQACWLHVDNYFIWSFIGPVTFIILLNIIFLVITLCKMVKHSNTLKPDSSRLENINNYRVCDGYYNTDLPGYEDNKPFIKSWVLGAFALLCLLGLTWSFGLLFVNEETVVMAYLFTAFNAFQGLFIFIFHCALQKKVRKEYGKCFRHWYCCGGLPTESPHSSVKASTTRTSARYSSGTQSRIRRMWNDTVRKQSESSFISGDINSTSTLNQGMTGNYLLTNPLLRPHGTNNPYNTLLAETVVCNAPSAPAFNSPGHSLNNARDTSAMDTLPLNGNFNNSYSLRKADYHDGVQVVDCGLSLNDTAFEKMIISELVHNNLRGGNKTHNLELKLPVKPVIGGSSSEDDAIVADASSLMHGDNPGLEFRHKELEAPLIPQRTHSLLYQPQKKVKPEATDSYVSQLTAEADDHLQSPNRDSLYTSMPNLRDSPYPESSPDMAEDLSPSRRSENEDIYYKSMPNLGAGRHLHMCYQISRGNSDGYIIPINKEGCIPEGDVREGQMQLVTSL
Chain of murine Latrophilin 3 ectodomain (mLphn3 ecto) (mouse) (Q80TS3 20-1537): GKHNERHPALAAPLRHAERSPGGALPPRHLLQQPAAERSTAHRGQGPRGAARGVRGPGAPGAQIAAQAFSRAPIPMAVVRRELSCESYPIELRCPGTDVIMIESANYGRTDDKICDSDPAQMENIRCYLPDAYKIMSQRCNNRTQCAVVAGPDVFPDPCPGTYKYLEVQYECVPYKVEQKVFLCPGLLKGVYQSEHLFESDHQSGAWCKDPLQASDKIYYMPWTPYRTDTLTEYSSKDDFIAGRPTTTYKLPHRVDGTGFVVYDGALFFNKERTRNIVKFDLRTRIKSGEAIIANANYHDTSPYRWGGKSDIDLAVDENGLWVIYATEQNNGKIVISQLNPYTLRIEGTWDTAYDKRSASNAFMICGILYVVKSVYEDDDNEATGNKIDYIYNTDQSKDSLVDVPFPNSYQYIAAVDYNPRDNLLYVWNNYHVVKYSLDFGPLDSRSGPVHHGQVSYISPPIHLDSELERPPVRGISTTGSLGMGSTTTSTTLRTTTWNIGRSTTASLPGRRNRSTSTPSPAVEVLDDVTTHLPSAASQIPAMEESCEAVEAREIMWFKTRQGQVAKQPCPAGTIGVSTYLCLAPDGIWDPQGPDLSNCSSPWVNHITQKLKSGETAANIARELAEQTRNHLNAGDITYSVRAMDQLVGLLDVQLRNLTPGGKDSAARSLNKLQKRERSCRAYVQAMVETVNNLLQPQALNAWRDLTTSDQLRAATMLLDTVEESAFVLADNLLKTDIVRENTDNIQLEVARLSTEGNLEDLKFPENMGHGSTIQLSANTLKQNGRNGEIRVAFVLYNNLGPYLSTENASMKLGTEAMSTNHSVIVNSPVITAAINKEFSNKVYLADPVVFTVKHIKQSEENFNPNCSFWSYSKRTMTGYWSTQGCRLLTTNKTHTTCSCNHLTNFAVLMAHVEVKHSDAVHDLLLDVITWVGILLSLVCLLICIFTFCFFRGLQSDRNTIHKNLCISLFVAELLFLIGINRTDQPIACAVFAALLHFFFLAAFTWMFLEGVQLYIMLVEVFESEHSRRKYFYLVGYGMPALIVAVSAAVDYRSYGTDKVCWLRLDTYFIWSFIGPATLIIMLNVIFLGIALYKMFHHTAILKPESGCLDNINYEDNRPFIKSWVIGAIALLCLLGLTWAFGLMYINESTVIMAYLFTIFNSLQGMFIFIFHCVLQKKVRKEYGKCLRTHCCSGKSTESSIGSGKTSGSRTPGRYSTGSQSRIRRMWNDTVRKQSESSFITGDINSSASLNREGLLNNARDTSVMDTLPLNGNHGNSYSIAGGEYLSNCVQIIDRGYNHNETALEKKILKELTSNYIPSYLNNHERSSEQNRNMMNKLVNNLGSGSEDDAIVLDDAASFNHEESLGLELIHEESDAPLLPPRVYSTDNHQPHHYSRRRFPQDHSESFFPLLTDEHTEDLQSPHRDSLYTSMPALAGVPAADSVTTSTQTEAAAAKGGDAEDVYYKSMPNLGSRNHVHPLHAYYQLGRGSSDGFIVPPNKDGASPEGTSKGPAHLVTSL
Chain of FLRT2 on K-562 cells (Q8BLU0 36-660): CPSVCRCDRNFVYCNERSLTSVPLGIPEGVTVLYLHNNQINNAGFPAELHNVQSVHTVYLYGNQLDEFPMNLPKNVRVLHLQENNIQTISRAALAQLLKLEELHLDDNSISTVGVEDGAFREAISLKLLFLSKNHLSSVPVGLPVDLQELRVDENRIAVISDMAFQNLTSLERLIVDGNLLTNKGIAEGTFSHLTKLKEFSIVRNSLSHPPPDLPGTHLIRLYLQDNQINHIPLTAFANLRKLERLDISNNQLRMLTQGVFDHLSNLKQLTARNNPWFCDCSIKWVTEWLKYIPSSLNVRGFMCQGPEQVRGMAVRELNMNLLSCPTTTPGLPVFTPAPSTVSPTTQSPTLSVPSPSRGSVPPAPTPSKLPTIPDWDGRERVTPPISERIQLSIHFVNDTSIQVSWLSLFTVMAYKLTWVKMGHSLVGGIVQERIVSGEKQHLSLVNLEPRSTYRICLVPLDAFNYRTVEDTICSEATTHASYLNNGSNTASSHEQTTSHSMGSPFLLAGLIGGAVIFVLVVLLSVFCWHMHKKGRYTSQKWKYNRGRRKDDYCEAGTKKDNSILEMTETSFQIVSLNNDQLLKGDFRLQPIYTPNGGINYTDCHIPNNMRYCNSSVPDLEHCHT

murine Lphn1 (mVenus-tagged, surface of HEK293 cells) E39N
response ([1]; surface murine Lphn1TL, soluble His-tagged chicken Ten2 (ecto)): 0%
response [2]: 0%

murine Teneurin 2 ectodomain (mTen2 ecto) (from UniProt Q9WTS5 401-2764) (domain or fragment)
Kd [3]: 35 nM
Kd [4]: 100 nM
Kd [5]: 490 nM

chicken Teneurin 2 ectodomain (gTen2 ecto) (from UniProt Q9DER5 429-2802) (domain or fragment)
Kd [3]: 40 nM
Kd [4]: 60 nM
Kd [5]: 680 nM

murine Lphn1 (mVenus-tagged, surface of HEK293 cells) L39A; P51G; D54A; D67A; D72A
response ([1]; surface murine Lphn1TL2, soluble His-tagged chicken Ten2 (ecto)): 1.5%

Lphn1 on K-562 cells (from UniProt Q80TR1) E39N
other: aggregation (%) (FLRT2 on K-562 cells): 68%
other: aggregation (%) (Ten2 on K-562 cells): 5%

Ten2 on K-562 cells (from UniProt Q9DER5) 1892N; K1894T
other: aggregation (%) (Lphn1 on K-562 cells): 5%

chicken Ten2, transmembrane construct at the surface of HEK293 cells (from UniProt Q9DER5) 1892N; K1894T
response (murine Lphn1 (ecto)): 0%
response (murine Lphn2 (ecto)): 2%

B1: murine Latrophilin 1 Lec-Olf domains (mLphn1 Lec-Olf) (domain or fragment, mouse, UniProt Q80TR1 29-395, looked up)
chain: GLPFGLMRRELACEGYPIELRCPGSDVIMVENANYGRTDDKICDADPFQMENVQCYLPDAFKIMSQRCNNRTQCVVVAGSDAFPDPCPGTYKYLEVQYDCVPYIFVCPGTLQKVLEPTSTHESEHQSGAWCKDPLQAGDRIYVMPWIPYRTDTLTEYASWEDYVAARHTTTYRLPNRVDGTGFVVYDGAVFYNKERTRNIVKYDLRTRIKSGETVINTANYHDTSPYRWGGKTDIDLAVDENGLWVIYATEGNNGRLVVSQLNPYTLRFEGTWETGYDKRSASNAFMVCGVLYVLRSVYVDDDSEAAGNRVDYAFNTNANREEPVSLAFPNPYQFVSSVDYNPRDNQLYVWNNYFVVRYSLEFGPPD
modifications: biotinylated enzymatically at the C-terminal Avi-tag
notes: The limits 29-395 are printed for the Lec-Olf construct that was crystallised; source: HEK293 cells; biotinylated enzymatically; not shown: Avi-tag, C-terminal, kept
Kd [6]: 290 nM
Kd [7]: 590 nM
